The results in this text go back to the nanobody polyreactivity screen of Harvey et al. (2022).

A short description of this data set: yeast display, Sf9 membrane polyspecificity reagent, FACS + sequencing; frameworks hold sequencing errors. In short, it runs like this: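 A synthetic nanobody library was expressed on Saccharomyces cerevisiae BJ5465 by galactose induction for 36–48 hours. The library was stained for 1 hour at 4 °C with 10% biotinylated, detergent-solubilized Sf9 membrane reagent and enriched with streptavidin microbeads before FACS. Low and high (top ~1%) gates were set on anti-HA fluorescence for expression and streptavidin fluorescence for reagent binding, and each polyreactivity label reflects the gate of origin.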
Turning to “QVQLVESGGGLVQAGGSLSLSCAASGLTFRSYTMGWYRQAPGKERELVAAISSGGSTYYADSVKGRFTISRDNAKNTVYLQMNSLKPEDTAVYYCAAPRGHGKYYSWGQGTQVTVSS”, the “polyreactivity (PSR sort gate)” value is “high polyreactivity”.

On to “QVQLVESGGGLVQAGGSLSLSCAASGNTLYNYPMGSYRPAPGKERELVAAISLSGGSTYYADSVKGRFTISRDNAKNTVYLQMNSLKRVDTAVYYCDADIFYYSSSYGYWGQGTQVTVSS”, for which the “polyreactivity (PSR sort gate)” value is “low polyreactivity”.

For the sequence “QVQLVESGGGLVQAGGSLSLSCAASGPTFGEYVMGWYRQAPGKERELVASISRRGGSTYYADSVKGRFTISRDNAKNTVYLQMNSLKPEDTAVYYCAKYRTQWSKNLYPYGFDYWGQGTQVTVSS”, the “polyreactivity (PSR sort gate)” value is “low polyreactivity”.

In the case of “QVQLVESGGGLVQAGGSLSLSCAASGRIFAYYAMGWYRQAPGKERELVAGISQRGSRTYYADSVKGRFTISRDNGKNTVYLQMNSLKPEDTAVYYCAARDRRSVTMDYWGQGTQVTVSS”, the “polyreactivity (PSR sort gate)” value is “high polyreactivity”.

As to “QVQLVESGGGLVQAGGSLSLSCAASGRIFGYYAMGGYRQAPGKERELVAAITTGGNTYYAESVKGRFTISRDNAKNTVNLQMNSLKPEDTAVYYCNKRSYAYYSYAVFTWVDYWGQGTQVTVSS”, the “polyreactivity (PSR sort gate)” value was “low polyreactivity”.

In the case of “QVQLVESGGGLVQAGGSLSLSCAASGRIFNRNAMGWYRQAPGKERELVASISSGGRTNYADSVKGRFTISRDNAKNTFYLQMNSLKPEDTAVYYCAAKSPRILLDYWGQGTQVTVSS”, the “polyreactivity (PSR sort gate)” value is reported as “low polyreactivity”.

As to “QVQLVESGGGLVQAGGSLSLSCAASGRIFRRYAMGWYRQAPWKERELVAAITWSGGSTYADSVKGRFTISRDNAKNTVYLQMNSLKPEDTAVYYCAARYVTTKGSFVVGYGYWGQGTQVTVSS”, the “polyreactivity (PSR sort gate)” value is “high polyreactivity”.

In the case of “QVQLVESGGGLVQAGGSLSLSCAASGRIFSLNVMGWYSQARGKERELVATIRGRGTSTYYADSVKGRFTISRDTAKNTVYLQMNSLKPEDTAVFYCAARGHGAYGYWGQGTQVTVSS”, the “polyreactivity (PSR sort gate)” value is given as “low polyreactivity”.

As to “QVQLVESGGGLVQAGGSLSLSCAASGRIFSYNDMGWYRQAPGKERELVAAITSNDGSTYYADSVKGRFTISRDNAKNTVYLQMNSLKPVDSAVSYCTADVLFLSSYGYDYWGQGTQVTVSS”, the “polyreactivity (PSR sort gate)” value is “low polyreactivity”.

In the case of “QVQLVESGGGLVQAGGSLSLSCAASGRIFYGYVMVWYRQAPGKERELVAAITWSGSRTYYADSVKGRFTISRDNAKNTVFLQMNSLKPADTAVYYCAARIPSDGYYYWGQGTQVTVSS”, the “polyreactivity (PSR sort gate)” value is “high polyreactivity”.

As for “QVQLVESGGGLVQAGGSLSLSCAASGRIINWYAMGWYRQATGKERELVARISSGDITSYADSVKGRFTISRDNAKNTVYLQMYSLKPEDTAVSYCAARQWFLYDYWGQGTQVTVSS”, the “polyreactivity (PSR sort gate)” value is recorded as “low polyreactivity”.

For “QVQLVESGGGLVQAGGSLSLSCAASGRTFASNAIGWYRQAPGKERELVAAISSAGGTNYADSVKGRFTISRDNAKNTVYLQMISLKPEDTAVYYCAAASPYYSYHRYIYYYWGQGTQVTVSS”, the “polyreactivity (PSR sort gate)” value is “high polyreactivity”.

With “QVQLVESGGGLVQAGGSLSLSCAASGRTFIRNAMGWYRQAPRKEREVVAAINSCGITNYADSVNGRFTISRDNAKNTVDLQMNSLKPEDTAVYYCANTFQYYWFSLYDYWGQGTQVTVSS”, the “polyreactivity (PSR sort gate)” value was “low polyreactivity”.

In the case of “QVQLVESGGGLVQAGGSLSLSCAASGRTFNNNAMGCYIPAPGKERELVAAITSGASTNYADSVKGRFTISRDNAKNTVYLQMNSLKPEDTAVYYCAKATYPHEYDYWGQGTQVTVSS”, the “polyreactivity (PSR sort gate)” value is reported as “low polyreactivity”.

Turning to “QVQLVESGGGLVQAGGSLSLSCAASGRTFRVYAMGSYRQSPRKERELVAAITNGGSTNYADSVKGRFTISRDNAKNTVYLQMNSLKPEDTAVYYCARVHRSYVAAQGVYVGNYYWGQGTQVTVSS”, the “polyreactivity (PSR sort gate)” value is on record as “high polyreactivity”.

“QVQLVESGGGLVQAGGSLSLSCAASGRTFRYYAMGWYRQAPGKERELVAAMRTRGASTYYADSVKGRFTISRDNAKNSVYLQMNSLKPEVSAVYYCAASRSGHGIIDYDSWGK”: the “polyreactivity (PSR sort gate)” value is on record as “low polyreactivity”.

With “QVQLVESGGGLVQAGGSLSLSCAASGRTFSGNAMGWYRQAPGKERELVAAINWRGGRTYYADSVKGRFTISRDNAKNTVYLQMNSLKPEDTAVYYCAAVYVFHRYIYSLYDYWGQGTQVTVSS”, the “polyreactivity (PSR sort gate)” value was “high polyreactivity”.

In the case of “QVQLVESGGGLVQAGGSLSLSCAASGSIFAAYTMGWYRQAPGQDRELVAAITSGGTYADSVKGRFTISRDNAKYSVYLQKNSLQPEVTAVYYCYAGNNVVVDYDYWGQGTQVTVSS”, the “polyreactivity (PSR sort gate)” value is reported as “low polyreactivity”.

“QVQLVESGGGLVQAGGSLSLSCAASGSIFAGNAMGWYRQAPGKERELVAAIRWSTGSTYYADSVKGRFTISRDNAKNTVYLQMNSQKPEDTAVYYCAATDTTFYGIVRYEFWGQGTQVTVSS”: the “polyreactivity (PSR sort gate)” value was “low polyreactivity”.

Turning to “QVQLVESGGGLVQAGGSLSLSCAASGSIFASYAMGWYRQAPGKERELVAAITSDGNTYYADSVKGRFTISRDNAKNTVYLQMNSLKPEDTAVYYCAADRYSTYPYAKGTEFYYWGQGTQVTVSS”, the “polyreactivity (PSR sort gate)” value is “low polyreactivity”.

Regarding “QVQLVESGGGLVQAGGSLSLSCAASGSIFFNNAMGWYRQAPGKERELVAAITWRDGSTNYADSVKGRFTISRDIAKNTVYLQMNSLKPEDTAVYYCNKVKEFGNVWFLPKYNYWGQGTQVTVSS”, the “polyreactivity (PSR sort gate)” value is reported as “low polyreactivity”.

“QVQLVESGGGLVQAGGSLSLSCAASGSIFGENAKGWYRQAPGKERELVAAITWGGTSTYYADSVKGRFTISRDNAKNTVYLQMNSLKPEDTAVYYCNTPRYVRRQGVKRYDYWGQGTQVTVSS”: the “polyreactivity (PSR sort gate)” value is reported as “low polyreactivity”.

Consider “QVQLVESGGGLVQAGGSLSLSCAASGSIFGFNAMGWYRQAPGKERELVAAINNGGSTNYADSVKGRFTISRDNAKNTVYLQMNSLNPEDTSVYYCAAVGGWRWSNQDYRYPYYYWGQGTQVTVSS”, for which the “polyreactivity (PSR sort gate)” value was “high polyreactivity”.

Take “QVQLVESGGGLVQAGGSLSLSCAASGSIFGGYTMGRKRQAPGKERELVAAISSVGSTYYADSVKGRFTISRDNAKNTVYLQMNSLKTEDTAVYYCATSTYAYRRNSNYYSLPRFGYWGQGTQVSVSS”: the “polyreactivity (PSR sort gate)” value was “high polyreactivity”.

In the case of “QVQLVESGGGLVQAGGSLSLSCAASGSIFPHYAMGWYRQAPGKERELVAAISRGGSTNYADSVKGRFTISRDNAKNTVYLQMISLKPEDTAVYYCNARVYTKDYKRYDYWGQGTQVTVSS”, the “polyreactivity (PSR sort gate)” value is “high polyreactivity”.

With “QVQLVESGGGLVQAGGSLSLSCAASGSIFYGYAMGWYRQAPGKERELVAAITSGGRTYYADSVKGRFTISRDNAKNTVYLQMNSLKPEDTAVYYCNAVYRKTSYGYWGQGTQVTVSS”, the “polyreactivity (PSR sort gate)” value is given as “high polyreactivity”.

As to “QVQLVESGGGLVQAGGSLSLSCAASGSILDRNTMGWYRQAPGKERELVAAITGSGSRTYYADSVKGRFTISRDNAKNTVYLQMNSLKPEDTAVYYCAAYTHSWTGDNYWGQGTQVTVSS”, the “polyreactivity (PSR sort gate)” value was “high polyreactivity”.

With “QVQLVESGGGLVQAGGSLSLSCAASGSTFGYYARGWYRQAPGKERELVATITIGGYTHYADSVKGRFTISRDNAKNTVYLQMNSLKPEDTAFYYCAKRYYTNRHSRAFGYWGQGTQVTVSS”, the “polyreactivity (PSR sort gate)” value was “high polyreactivity”.

For “QVQLVESGGGLVQAGGSLSLSCAASGSTFPEYVMGWYRQAPGKERELVAAITRRGGRTYYADSVKGRFTISRDNAKNTVYLQMNSLKPEDTEVYYCAAKSAVVVCMDSWGQGTQVTVSS”, the “polyreactivity (PSR sort gate)” value is on record as “high polyreactivity”.

On to “QVQLVESGGGLVQAGGSLSLSCAASGSTFSIYTMGWYRQAPGKERELVAVITKSGGSTYYADSVKGRFTISRDNAKNTVYLQMNSLKPEDTAVYYCAARRRGARHDYWGQGTQVTVSS”, for which the “polyreactivity (PSR sort gate)” value is reported as “high polyreactivity”.

For “QVQLVESGGGLVQAGGSLSLSCAASGSTFYHYAMGWYRQAPGKERELVAAISSSGGRTYYADSVKGRFTISRDNAKYTVYLQMNSLKPEDTAVYYCAARAKTSGSIEDYWGQGTQVTVSS”, the “polyreactivity (PSR sort gate)” value was “high polyreactivity”.

Turning to “QVQLVESGGGLVQAGGSLSLSCAASGSTIVVNAMGWYRQAPGKERELVASISWTTCSTYYADSVKGRFTISRDNAKNTVYLQMNSLKPEDTAVYYCAADILPRYSQFDYWGQGTQVTVSS”, the “polyreactivity (PSR sort gate)” value was “low polyreactivity”.

As for “QVQLVESGGGLVQAGGSLSLSCAASGSTSVLNAMGWYRHAPGKERELVAALTSGVDSTYYADSVKGRFTISRDNAKNTVYLQMNSVKREDTAVYYCATVVDALDNSYKRVYLFDYWGQGTQVTVSS”, the “polyreactivity (PSR sort gate)” value was “low polyreactivity”.

With “QVQLVESGGGLVQAGGSLSLSCAASGTFSPYAMGWYRQAPGKERELVADITSNTGRTYAASVKGRFTISRDNAKNTVYLQMNSLKPEDTAVYYCNTYGSGTHSTGYDYWGQGTQVTVSS”, the “polyreactivity (PSR sort gate)” value is “low polyreactivity”.

For the sequence “QVQLVESGGGLVQAGGSLSLSCAASRFTIGLYAMGWYRQAPGKEREMVAVISSSGGSTYYADSVKGRFTISRDNAKNTVYLQMNSLKPEDTAVYYCAAEWHDYKFDVTYDYWGQGTQVTVSS”, the “polyreactivity (PSR sort gate)” value is “low polyreactivity”.

As to “QVQLVESGGGLVQAGGSLSLSCAATGSIITSNAMGWYRQAPGKERELVAAISWSGSRTFYADSVKGRFTISRDNEKNTVYLQMNSLKPEDTAVYYCAAGNRKWKMGYWGQGTQVTVSS”, the “polyreactivity (PSR sort gate)” value was “high polyreactivity”.

For the sequence “QVQLVESGGGLVQAGGSLSLSCAATGSTFWWYAMGWYRQAPGKEREFVAAIRWSSGSTYYADSVKGRFTISRDNAKNTVYLQMNSLKPEDTAVYYCATDDTSNVYVDLDYWGQGTQVTVSS”, the “polyreactivity (PSR sort gate)” value is recorded as “high polyreactivity”.

“QVQLVESGGGLVQAGGSLSLSCAAYGITISIYSMGSYRQAPGKERELVAAINSGGTTYYADSVKGRFTISRDNAKNTVYLQMNSLKPEDTAVYYCADEYFAYPYEFYGGQGTQVTVSS”: the “polyreactivity (PSR sort gate)” value was “high polyreactivity”.

As to “QVQLVESGGGLVQAGGSLSLSCADSGSNFGDYAMGWYRQAPGKERELFAAISFSDGSTYYADSVKGRFTISRDNANNTVYLQMNSLKPEDTAVYYCAKDAYWGYRWYTYDYWGQGTQVTVSS”, the “polyreactivity (PSR sort gate)” value is given as “low polyreactivity”.

Regarding “QVQLVESGGGLVQAGGSLSLSCPASGRIFRWNAMGWYRQAPGKEREFVAAISWSGGSTYYADSVKGRFTISRDNAKNTVYLQMNSLKPEDTAVYYCNKVGYYGVGTSQEFDYWGQGTQVTVSS”, the “polyreactivity (PSR sort gate)” value was “high polyreactivity”.

Consider “QVQLVESGGGLVQAGGSLSLSWAASGSTFETNAMGWYRQAPGKERELVAVITRGGSTYSADSVKGRFTISRDNAKNTVFLQMNRLKPEDTAVYYCNTVKYVPINYIYAMDYWGQGTQVTVSS”, for which the “polyreactivity (PSR sort gate)” value was “low polyreactivity”.
